Reference: patent publication US20230146533A1, “KERATIN BD-10, PREPARATION METHOD THEREFOR AND PHARMACEUTICAL COMPOSITION AND USE THEREOF” (INSTITUTE OF MATERIA MEDICA, CHINESE ACADEMY OF MEDICAL …, priority 2019, published 2023)

Legend:
Assay type in all cases: in vivo, ICR mice
[1] = system: mice cough induced by ammonia water; assay: Antitussive test, cough induced by ammonia water in mice; conditions: for Incubation period (cough) / Number of coughs: 10% ammonia water atomized 10 seconds one hour later, X ± SEM; for Number of coughs: coughs within 2 minutes
Protocol: Animals: male ICR mice; Drugs and reagents: dextromethorphan hydrobromide, ammonia water, 0.2% CMC-Na, protein BD-10; Apparatus: Compressed nebulizer (403T type), balance (XS105DU type). Experiment grouping: • Solvent control group; • Dextromethorphan 15 mg/kg group; • Protein BD-10, 20 mg/kg group, 50 mg/kg group.
Dextromethorphan and different doses of protein BD-10 (administration volume 10 ml/kg) were given orally in groups, and the solvent control group was given the same volume of distilled water. One hour later, mice were put into a sealed box and atomized 10% ammonia water for 10 seconds, and then observed and recorded the incubation period of cough in mice and the number of coughs in 2 minutes.
Record the time point of oral administration, the time point of atomization experiment, the incubation period of mice cough and the number of coughs within 2 minutes, respectively. The incubation period of cough refers to the number of seconds from the start of the atomization of ammonia to the occurrence of cough. The performance of coughing in mice is based on contraction of their abdominal muscles (breast contraction) and opening their mouths at the same time. Calculate the mean and standard error of each group of data, and use TTEST to compare the model group with other groups, and P<0.05 is considered as a significant difference.

[2] = system: phenol red excretion in mice; assay: Expectorant test, phenol red excretion method in mice; conditions: for Phenol red excretion: 2.5% phenol red i.p. one hour later, trachea after 30 minutes, X ± SEM
Protocol: Animals: male ICR mice; Drugs and reagents: Mucosolvan (ambroxol hydrochloride tablets), phenol red, sodium bicarbonate, protein BD-10; Instruments: centrifuge (Sigma-3K15 type), balance (XS105DU type), Microplate tester (BIO-TEK type). Experiment grouping: • Solvent control group; • Mucosolvan 30 mg/kg group; • Protein BD-10, 20 mg/kg group, 50 mg/kg group.
The animals were fasted and water was taken freely 16 hours before the experiment. Orally administered Mucosolvan and different doses of protein BD-10 (administration volume 10 ml/kg) in groups, and the solvent control group was given the same volume of distilled water. One hour later, 2.5% phenol red solution was injected intraperitoneally. Mice were sacrificed by neck dislocation after 30 minutes. Take a trachea from below the thyroid cartilage to the branch of the trachea, and put the trachea into 3 ml 5% NaHCO3 solution and let it stand for 3 hours. Take 1 ml of the supernatant and centrifuge at 3000 rpm for 5 minutes. Measure and record the absorbance at 546 nm. According to the standard curve of phenol red, the excretion of phenol red was calculated.
Record the time point of oral administration, the time point of intraperitoneal injection of 2.5% phenol red solution, and the time point of taking the trachea respectively; The absorbance of each group of samples was measured by the microplate reader at 546 nm, Calculate the excretion of phenol red according to the standard curve of phenol red. Calculate the mean and standard error of the data in each group, and use TTEST to compare the solvent control group with other groups, and P<0.05 is considered as a significant difference.

[3] = system: PLO-induced epilepsy in mice; assay: Pilocarpine (PLO) induced convulsive epilepsy in mice; parameters: mortality rate: unit not given here; conditions: for Grade IV seizure rate / mortality rate / Grade II seizure incubation period / Grade III seizure incubation period / Grade IV seizure incubation period / Cases of deaths / Cases of Grade IV: PLO 225 mg/kg i.p.; for Grade IV seizure rate / mortality rate: 10 mice; for Grade II seizure incubation period / Grade III seizure incubation period / Grade IV seizure incubation period: mean ± SEM; for Grade IV seizure incubation period: mice not reaching Grade IV recorded as maximum 1800 seconds; for Cases of deaths / Cases of Grade IV: of 10 mice; for Cases of Grade IV: 30 minutes observation
Protocol: Animals: male ICR mice; Drugs: Pilocarpine HCl (PLO, pilocarpine, pilocarpine hydrochloride), Diazepam (diazepam tablets), protein BD-10.
Experiment grouping: • Model group: • Diazepam 2 mg/kg group; • Protein BD-10, 50 mg/kg group, 200 mg/kg group.
The drug was administered once in the afternoon the day before modeling, PLO-225 mg/kg (modeling agent) was injected intraperitoneally 1 hour after the test drug was administered intragastrically on the day of modeling. And positive drug can be administered once 20 minutes before modeling. Observe for 30 minutes after PLO injection.
Observation indicators: (1)Seizure situation: the time of seizures from Grade II to Grade IV; (2)the time to death.
Seizure grade: Refer to Racine grading standard: Grade 0: No response; Grade I: manifested as twitching of facial muscles or the corners of the mouth; Grade II: can nod; Grade III: twitching of one limb; Grade IV: rigidity or body twitching; Grade V: generalized epilepsy (generalized tonic seizures).
Count the number of Grade IV seizures and deaths in each group of mice in the experiment; Grade II, III and IV incubation period. […] Chi-square test was used for statistics of the number of cases. The mean value and standard error of the incubation period were calculated, and TTEST was used to compare the model group with other groups. P<0.05 was considered as a significant difference.

B1: BD-10: recombinant keratin with amino acid sequence SEQ ID NO:1, expressed in E. coli inclusion bodies, band around 55 kD (protein, listed as Bos taurus)
chain: MSCRSYRISPGYSVTRTFSSCSAVAPKTGSRCCITAAPYRGVSCYRGLTGFGSRSVSALGSCGPRIAVGGFRAGSCNRSFGYRSGGVGGLSPPCITTVSVNESLLTPLNLEIDPNAQCVKHEEKEQIKNLNSRFAAFIDKVRFLEQQNKLLETKWQFYQNQRCCESNLEPLFNGYIETLRREAEHVEADGGRLASELNHVQEVLEGYKKKYEEEVALRATAENEFVVLKKDVDCAYLRKSDLEANVEALVEESNFLKRLYDEEIQILNAHISDTSVIVKMDNSRDLNMDCVVAEIKAQYDDIASRSRAEAESWYRNKCEEMKATVIRHGETLRRTKEEINELNRIIQRLTAEIENAKCQRTKLEAAVAEAEQQGEAALNDARCKLAGLEEALQKAKQDMACLLKEYQEVMNSKLGLDIEIATYRRLLEGEEQRLCEGVGSVNVCVSSSRGGVTCGGLTYSTTAGRQIASGPVATGGSITVLAPDSCVPCQPRASSFSCGSSRSVRFA
- Incubation period (cough) ([1]; BD-10 20 mg/kg oral): 31.4 ± 2.6 s
- Number of coughs ([1]; BD-10 20 mg/kg oral): 55.3 ± 4.2
- Incubation period (cough) ([1]; BD-10 50 mg/kg oral): 29.4 ± 3.0 s
- Number of coughs ([1]; BD-10 50 mg/kg oral): 59.8 ± 3.9
- Effect on incubation period and number of coughs (in words) ([1]; BD-10, dose not stated, not statistically significant): has a tendency to prolong the incubation period and reduce the number of coughs
- Effect on excretion of phenol red (in words) ([2]; BD-10 20 mg/kg and 50 mg/kg dose groups, vs solvent control group P<0.05): significantly increased the excretion of phenol red
- Phenol red excretion ([2]; BD-10 20 mg/kg oral): 0.746 ± 0.035 µg/mL
- Phenol red excretion ([2]; BD-10 50 mg/kg oral): 0.668 ± 0.063 µg/mL
- Expectorant effect (in words, summary) ([2]; BD-10, dose not stated): has obvious expectorant effect
- Incubation period of epilepsy Grade III, comparison with model group (in words) ([3]; BD-10 50 mg/kg dose group, PLO model): statistically different from the model group
- Grade IV seizure rate ([3]; BD-10 50 mg/kg intragastric): 90%
- mortality rate ([3]; BD-10 50 mg/kg intragastric): 0
- Grade II seizure incubation period ([3]; BD-10 50 mg/kg intragastric): 93 ± 4 s
- Grade III seizure incubation period ([3]; BD-10 50 mg/kg intragastric): 166 ± 8 s
- Grade IV seizure incubation period ([3]; BD-10 50 mg/kg intragastric): 871 ± 144 s
- Cases of deaths ([3]; BD-10 50 mg/kg intragastric): 0
- Cases of Grade IV ([3]; BD-10 50 mg/kg intragastric): 9
- Grade IV seizure rate ([3]; BD-10 200 mg/kg intragastric): 70%
- mortality rate ([3]; BD-10 200 mg/kg intragastric): 0
- Grade II seizure incubation period ([3]; BD-10 200 mg/kg intragastric): 90 ± 6 s
- Grade III seizure incubation period ([3]; BD-10 200 mg/kg intragastric): 151 ± 7 s
- Grade IV seizure incubation period ([3]; BD-10 200 mg/kg intragastric): 918 ± 198 s
- Cases of deaths ([3]; BD-10 200 mg/kg intragastric): 0
- Cases of Grade IV ([3]; BD-10 200 mg/kg intragastric): 7
- Effect on incubation period of Grade III epilepsy (in words, summary) ([3]; BD-10, dose not stated, PLO model): can significantly prolong the incubation period of Grade III epilepsy
